Molecular target: T1, Recombinant GST-PKM2 (human, UniProt P14618 1-531)
T1 construct: pyruvate kinase M2 (PKM2), human cDNA in pGEX-6P-1; source: E. coli BL21 (DE3), purified (glutathione resin, dialysed in PBS)
Experiment: pull-down; recombinant His-PGAM1 immobilised on Ni-beads, mixed with recombinant GST-PKM2 or GST-ENO1; eluate analysed by western blot
Settings: both partners purified

T1 sequence (P14618 whole entry): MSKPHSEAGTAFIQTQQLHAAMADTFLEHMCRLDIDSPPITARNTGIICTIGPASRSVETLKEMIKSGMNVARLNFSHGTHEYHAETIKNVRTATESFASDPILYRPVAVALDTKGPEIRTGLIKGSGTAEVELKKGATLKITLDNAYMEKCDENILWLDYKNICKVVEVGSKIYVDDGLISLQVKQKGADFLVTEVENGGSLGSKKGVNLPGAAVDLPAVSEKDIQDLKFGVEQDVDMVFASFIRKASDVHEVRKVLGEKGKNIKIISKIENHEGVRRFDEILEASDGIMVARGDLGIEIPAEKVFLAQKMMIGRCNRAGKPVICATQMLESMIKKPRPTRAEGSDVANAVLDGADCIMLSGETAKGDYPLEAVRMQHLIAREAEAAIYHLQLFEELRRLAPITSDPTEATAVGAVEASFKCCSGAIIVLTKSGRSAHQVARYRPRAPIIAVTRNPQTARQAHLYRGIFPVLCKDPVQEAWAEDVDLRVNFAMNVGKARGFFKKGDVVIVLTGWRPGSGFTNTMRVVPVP

binding result: binds
B1: Recombinant His-PGAM1 (enzyme, human)
chain: MAAYKLVLIRHGESAWNLENRFSGWYDADLSPAGHEEAKRGGQALRDAGYEFDICFTSVQKRAIRTLWTVLDAIDQMWLPVVRTWRLNERHYGGLTGLNKAETAAKHGEAQVKIWRRSYDVPPPPMEPDHPFYSNISKDRRYADLTEDQLPSCESLKDTIARALPFWNEEIVPQIKEGKRVLIAAHGNSLRGIVKHLEGLSEEAIMELNLPTGIPIVYELDKNLKPIKPMQFLGDEETVRKAMEAVAAQGKAKK
notes: phosphoglycerate mutase 1 (PGAM1), human cDNA in pET-28a; also called His-tagged PGAM1; source: E. coli BL21 (DE3), purified (Ni resin, dialysed in PBS)

From paper PMC11183095, “PKM2 functions as a histidine kinase to phosphorylate PGAM1 and increase glycolysis shunts in cancer” (The EMBO Journal, 2024)
